Assay results: publication PMC5959852 (2018)

Target: T1, Hif-1α CAD (Homo sapiens, UniProt Q16665)
T1 chain: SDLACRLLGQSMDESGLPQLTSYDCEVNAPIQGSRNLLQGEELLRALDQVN
Test: stopped-flow

Kd: 3.4 nM
B1: CBP TAZ1 (protein)
chain: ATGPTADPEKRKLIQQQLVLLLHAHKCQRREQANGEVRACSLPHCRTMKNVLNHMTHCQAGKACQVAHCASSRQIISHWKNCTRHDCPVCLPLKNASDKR
